# Laboratory results taken from article PMC10885436, “A novel AA14 LPMO from Talaromyces rugulosus with bifunctional cellulolytic/hemicellulolytic activity boosted cellulose hydrolysis” (Biotechnology for Biofuels and Bioproducts, 2024).
# B1: TrAA14A (Talaromyces rugulosus) (protein)
# chain: HVVAWHPGMYCLGGNDTSVDDPNTNLAVNPLWDLPKSKWWFQADRGCDKAPPVDGVFLELPAGQNFTTELAHNRAQTTLSFNGQYAGEWPDGKDHPEDWSGTGTPPGCIQDDGAIHTNNQTMAGGTVFAISYQSDMSQVTMENLVVFSVLEHTPWKRIATYEVPADLPPCPDAGCICAWGWVPQGCGEPNMYMAGYKCKVTGSSSTKQLAQAQVPKYCANDTSECVGGAKQILVMNQADGNNVVAPDNDFVAYNEKWGFQNGAQNDIFM
# notes: about 60 kDa glycosylated, about 30 kDa after Endo H; no dCTR
# Substrate: COc1cccc(OC)c1O
# Assay: purified protein
# Format: biochemical, Talaromyces rugulosus
# Conditions: co-substrate H2O2 fixed at 100 uM (below its Km, authors call kinetics insufficient), Cu(II)-saturated enzyme, 100 mM sodium phosphate pH 7.0, 37 C
protein,measurement,value
B1,Km,790 µM
same,kcat,1.32 s⁻¹
